Data published in patent US20250011410A1 (INVETX, published 2025).

Molecular target: T1, canine NGF tagged at the C-terminus with the Flag tag (canine, UniProt A0A8I3PYI3 122-241)
T1 construct: mature; Expressed with baculovirus technology; also called feline NGF (processed form identical)
Experiment: SPR off-rate screen, Fab-SASA on BSA chip

T1 sequence (A0A8I3PYI3 entry or part of it): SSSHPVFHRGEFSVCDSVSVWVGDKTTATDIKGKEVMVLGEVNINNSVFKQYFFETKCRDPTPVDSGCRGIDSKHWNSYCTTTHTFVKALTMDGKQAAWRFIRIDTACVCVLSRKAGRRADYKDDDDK

| Binder | Kd | Ratio WT-kd/clone-kd | koff | kon |
| --- | --- | --- | --- | --- |
| felinized clone 101 Fab-SASA variant N53I (VL) (Fab, V domains shown, not shown: small tags and cut ends) VH: DVQLVESGGDLVKPGGSLRLTCVASGLSLTSSSMSWVRQAPGKGLQWVSTIYSNGGTYYTDSVKGRFTISKDNAENTLYLQMNNLKTEDTATYYCASIYYYDADYLHWYFDFWGQGALVTVSS VL: EIQMTQSPTSLSASVGDRVTITCRASEGISNNLSWYQQTPGKAPKLLIYATSILHSGVPSRFSGSGSGTDFTLTISSLQPEDFATYYCQQGYKWPLTFGGGTKLEITR | 1.41 nM | 2.42 | 0.000389 s⁻¹ | 276000 M⁻¹ s⁻¹ |
| felinized clone 101 Fab-SASA variant S30P (VL) (Fab, V domains shown, not shown: small tags and cut ends) VH: DVQLVESGGDLVKPGGSLRLTCVASGLSLTSSSMSWVRQAPGKGLQWVSTIYSNGGTYYTDSVKGRFTISKDNAENTLYLQMNNLKTEDTATYYCASIYYYDADYLHWYFDFWGQGALVTVSS VL: EIQMTQSPTSLSASVGDRVTITCRASEGIPNNLSWYQQTPGKAPKLLIYATSNLHSGVPSRFSGSGSGTDFTLTISSLQPEDFATYYCQQGYKWPLTFGGGTKLEITR | 2.56 nM | 1.41 | 0.00067 s⁻¹ | 262000 M⁻¹ s⁻¹ |
| felinized clone 101 Fab-SASA variant S53P (VH) (Fab, V domains shown, not shown: small tags and cut ends) VH: DVQLVESGGDLVKPGGSLRLTCVASGLSLTSSSMSWVRQAPGKGLQWVSTIYPNGGTYYTDSVKGRFTISKDNAENTLYLQMNNLKTEDTATYYCASIYYYDADYLHWYFDFWGQGALVTVSS VL: EIQMTQSPTSLSASVGDRVTITCRASEGISNNLSWYQQTPGKAPKLLIYATSNLHSGVPSRFSGSGSGTDFTLTISSLQPEDFATYYCQQGYKWPLTFGGGTKLEITR | 2.15 nM | 1.36 | 0.000695 s⁻¹ | 323000 M⁻¹ s⁻¹ |
| felinized clone 101 Fab-SASA variant S30Q (VL) (Fab, V domains shown, not shown: small tags and cut ends) VH: DVQLVESGGDLVKPGGSLRLTCVASGLSLTSSSMSWVRQAPGKGLQWVSTIYSNGGTYYTDSVKGRFTISKDNAENTLYLQMNNLKTEDTATYYCASIYYYDADYLHWYFDFWGQGALVTVSS VL: EIQMTQSPTSLSASVGDRVTITCRASEGIQNNLSWYQQTPGKAPKLLIYATSNLHSGVPSRFSGSGSGTDFTLTISSLQPEDFATYYCQQGYKWPLTFGGGTKLEITR | 1.25 nM | 2.91 | 0.000324 s⁻¹ | 259000 M⁻¹ s⁻¹ |
| felinized clone 101 Fab-SASA variant R24F (VL) (Fab, V domains shown, not shown: small tags and cut ends) VH: DVQLVESGGDLVKPGGSLRLTCVASGLSLTSSSMSWVRQAPGKGLQWVSTIYSNGGTYYTDSVKGRFTISKDNAENTLYLQMNNLKTEDTATYYCASIYYYDADYLHWYFDFWGQGALVTVSS VL: EIQMTQSPTSLSASVGDRVTITCFASEGISNNLSWYQQTPGKAPKLLIYATSNLHSGVPSRFSGSGSGTDFTLTISSLQPEDFATYYCQQGYKWPLTFGGGTKLEITR | 2.28 nM | 1.44 | 0.000655 s⁻¹ | 287000 M⁻¹ s⁻¹ |
| felinized clone 101 Fab-SASA variant S30A (VL) (Fab, V domains shown, not shown: small tags and cut ends) VH: DVQLVESGGDLVKPGGSLRLTCVASGLSLTSSSMSWVRQAPGKGLQWVSTIYSNGGTYYTDSVKGRFTISKDNAENTLYLQMNNLKTEDTATYYCASIYYYDADYLHWYFDFWGQGALVTVSS VL: EIQMTQSPTSLSASVGDRVTITCRASEGIANNLSWYQQTPGKAPKLLIYATSNLHSGVPSRFSGSGSGTDFTLTISSLQPEDFATYYCQQGYKWPLTFGGGTKLEITR | 1.05 nM | 3.23 | 0.000292 s⁻¹ | 277000 M⁻¹ s⁻¹ |
| felinized clone 101 Fab-SASA variant N53M (VL) (Fab, V domains shown, not shown: small tags and cut ends) VH: DVQLVESGGDLVKPGGSLRLTCVASGLSLTSSSMSWVRQAPGKGLQWVSTIYSNGGTYYTDSVKGRFTISKDNAENTLYLQMNNLKTEDTATYYCASIYYYDADYLHWYFDFWGQGALVTVSS VL: EIQMTQSPTSLSASVGDRVTITCRASEGISNNLSWYQQTPGKAPKLLIYATSMLHSGVPSRFSGSGSGTDFTLTISSLQPEDFATYYCQQGYKWPLTFGGGTKLEITR | 1.87 nM | 1.46 | 0.000648 s⁻¹ | 346000 M⁻¹ s⁻¹ |
| felinized clone 101 Fab-SASA variant N53K (VL) (Fab, V domains shown, not shown: small tags and cut ends) VH: DVQLVESGGDLVKPGGSLRLTCVASGLSLTSSSMSWVRQAPGKGLQWVSTIYSNGGTYYTDSVKGRFTISKDNAENTLYLQMNNLKTEDTATYYCASIYYYDADYLHWYFDFWGQGALVTVSS VL: EIQMTQSPTSLSASVGDRVTITCRASEGISNNLSWYQQTPGKAPKLLIYATSKLHSGVPSRFSGSGSGTDFTLTISSLQPEDFATYYCQQGYKWPLTFGGGTKLEITR | 2.04 nM | 1.58 | 0.000596 s⁻¹ | 292000 M⁻¹ s⁻¹ |
| felinized clone 101 Fab-SASA variant S34A (VL) (Fab, V domains shown, not shown: small tags and cut ends) VH: DVQLVESGGDLVKPGGSLRLTCVASGLSLTSSSMSWVRQAPGKGLQWVSTIYSNGGTYYTDSVKGRFTISKDNAENTLYLQMNNLKTEDTATYYCASIYYYDADYLHWYFDFWGQGALVTVSS VL: EIQMTQSPTSLSASVGDRVTITCRASEGISNNLAWYQQTPGKAPKLLIYATSNLHSGVPSRFSGSGSGTDFTLTISSLQPEDFATYYCQQGYKWPLTFGGGTKLEITR | 1.74 nM | 1.2 | 0.000783 s⁻¹ | 450000 M⁻¹ s⁻¹ |
| felinized clone 101 Fab-SASA variant S31H (VH) (Fab, V domains shown, not shown: small tags and cut ends) VH: DVQLVESGGDLVKPGGSLRLTCVASGLSLTHSSMSWVRQAPGKGLQWVSTIYSNGGTYYTDSVKGRFTISKDNAENTLYLQMNNLKTEDTATYYCASIYYYDADYLHWYFDFWGQGALVTVSS VL: EIQMTQSPTSLSASVGDRVTITCRASEGISNNLSWYQQTPGKAPKLLIYATSNLHSGVPSRFSGSGSGTDFTLTISSLQPEDFATYYCQQGYKWPLTFGGGTKLEITR | 1.98 nM | 1.54 | 0.000612 s⁻¹ | 310000 M⁻¹ s⁻¹ |
| felinized clone 101 Fab-SASA variant S34G (VL) (Fab, V domains shown, not shown: small tags and cut ends) VH: DVQLVESGGDLVKPGGSLRLTCVASGLSLTSSSMSWVRQAPGKGLQWVSTIYSNGGTYYTDSVKGRFTISKDNAENTLYLQMNNLKTEDTATYYCASIYYYDADYLHWYFDFWGQGALVTVSS VL: EIQMTQSPTSLSASVGDRVTITCRASEGISNNLGWYQQTPGKAPKLLIYATSNLHSGVPSRFSGSGSGTDFTLTISSLQPEDFATYYCQQGYKWPLTFGGGTKLEITR | 1.13 nM | 1.83 | 0.000514 s⁻¹ | 456000 M⁻¹ s⁻¹ |
| felinized clone 101 Fab-SASA variant S28H (VH) (Fab, V domains shown, not shown: small tags and cut ends) VH: DVQLVESGGDLVKPGGSLRLTCVASGLHLTSSSMSWVRQAPGKGLQWVSTIYSNGGTYYTDSVKGRFTISKDNAENTLYLQMNNLKTEDTATYYCASIYYYDADYLHWYFDFWGQGALVTVSS VL: EIQMTQSPTSLSASVGDRVTITCRASEGISNNLSWYQQTPGKAPKLLIYATSNLHSGVPSRFSGSGSGTDFTLTISSLQPEDFATYYCQQGYKWPLTFGGGTKLEITR | 2.55 nM | 1.18 | 0.000802 s⁻¹ | 315000 M⁻¹ s⁻¹ |
| felinized clone 101 Fab-SASA variant S30Y (VL) (Fab, V domains shown, not shown: small tags and cut ends) VH: DVQLVESGGDLVKPGGSLRLTCVASGLSLTSSSMSWVRQAPGKGLQWVSTIYSNGGTYYTDSVKGRFTISKDNAENTLYLQMNNLKTEDTATYYCASIYYYDADYLHWYFDFWGQGALVTVSS VL: EIQMTQSPTSLSASVGDRVTITCRASEGIYNNLSWYQQTPGKAPKLLIYATSNLHSGVPSRFSGSGSGTDFTLTISSLQPEDFATYYCQQGYKWPLTFGGGTKLEITR | 2.2 nM | 1.21 | 0.000782 s⁻¹ | 355000 M⁻¹ s⁻¹ |
| felinized clone 101 Fab-SASA variant N53L (VL) (Fab, V domains shown, not shown: small tags and cut ends) VH: DVQLVESGGDLVKPGGSLRLTCVASGLSLTSSSMSWVRQAPGKGLQWVSTIYSNGGTYYTDSVKGRFTISKDNAENTLYLQMNNLKTEDTATYYCASIYYYDADYLHWYFDFWGQGALVTVSS VL: EIQMTQSPTSLSASVGDRVTITCRASEGISNNLSWYQQTPGKAPKLLIYATSLLHSGVPSRFSGSGSGTDFTLTISSLQPEDFATYYCQQGYKWPLTFGGGTKLEITR | 2.08 nM | 1.41 | 0.000667 s⁻¹ | 321000 M⁻¹ s⁻¹ |
| felinized clone 101 Fab-SASA variant S30L (VL) (Fab, V domains shown, not shown: small tags and cut ends) VH: DVQLVESGGDLVKPGGSLRLTCVASGLSLTSSSMSWVRQAPGKGLQWVSTIYSNGGTYYTDSVKGRFTISKDNAENTLYLQMNNLKTEDTATYYCASIYYYDADYLHWYFDFWGQGALVTVSS VL: EIQMTQSPTSLSASVGDRVTITCRASEGILNNLSWYQQTPGKAPKLLIYATSNLHSGVPSRFSGSGSGTDFTLTISSLQPEDFATYYCQQGYKWPLTFGGGTKLEITR | 1.87 nM | 1.86 | 0.000507 s⁻¹ | 270000 M⁻¹ s⁻¹ |
| felinized clone 101 Fab-SASA variant N53V (VL) (Fab, V domains shown, not shown: small tags and cut ends) VH: DVQLVESGGDLVKPGGSLRLTCVASGLSLTSSSMSWVRQAPGKGLQWVSTIYSNGGTYYTDSVKGRFTISKDNAENTLYLQMNNLKTEDTATYYCASIYYYDADYLHWYFDFWGQGALVTVSS VL: EIQMTQSPTSLSASVGDRVTITCRASEGISNNLSWYQQTPGKAPKLLIYATSVLHSGVPSRFSGSGSGTDFTLTISSLQPEDFATYYCQQGYKWPLTFGGGTKLEITR | 1.42 nM | 2.32 | 0.000407 s⁻¹ | 288000 M⁻¹ s⁻¹ |
| felinized clone 101 Fab-SASA variant S35V (VH) (Fab, V domains shown, not shown: small tags and cut ends) VH: DVQLVESGGDLVKPGGSLRLTCVASGLSLTSSSMVWVRQAPGKGLQWVSTIYSNGGTYYTDSVKGRFTISKDNAENTLYLQMNNLKTEDTATYYCASIYYYDADYLHWYFDFWGQGALVTVSS VL: EIQMTQSPTSLSASVGDRVTITCRASEGISNNLSWYQQTPGKAPKLLIYATSNLHSGVPSRFSGSGSGTDFTLTISSLQPEDFATYYCQQGYKWPLTFGGGTKLEITR | 1.17 nM | 2.62 | 0.00036 s⁻¹ | 309000 M⁻¹ s⁻¹ |
| felinized clone 101 Fab-SASA variant S30V (VL) (Fab, V domains shown, not shown: small tags and cut ends) VH: DVQLVESGGDLVKPGGSLRLTCVASGLSLTSSSMSWVRQAPGKGLQWVSTIYSNGGTYYTDSVKGRFTISKDNAENTLYLQMNNLKTEDTATYYCASIYYYDADYLHWYFDFWGQGALVTVSS VL: EIQMTQSPTSLSASVGDRVTITCRASEGIVNNLSWYQQTPGKAPKLLIYATSNLHSGVPSRFSGSGSGTDFTLTISSLQPEDFATYYCQQGYKWPLTFGGGTKLEITR | 1.68 nM | 1.95 | 0.000483 s⁻¹ | 287000 M⁻¹ s⁻¹ |
